Data on 38 variants can be found in the RNAGym collection of RNA variant scans (doi:10.7554/elife.80360).

Sequences and labels used below:
B1: Hairpin Ribozyme (parent)
chain: GUCCUCUUUCACGUGCGCGUGAAAGAGAGAAGUGAACCAGAGAAACACACGUUGUGGUAUAUUACCUGGUA

The variants in this data set derive from B1. The data set can be described thus: self-cleavage, relative activity (ratio to wild type); higher = more cleavage; co-transcriptional.
As for GACCUCUUUCACGUGCGCGUGAAAGAGAGAAGUGAACCAGAGAAACACACGUUGUGGUAUAUUAUCUGGUA [U2A C65U], the self-cleavage was found to be 0.128. The result for GACCUCUUUCACGUGCGCGUGAAAGAGAGAAGUGAACCAGAGAAACACAUGUUGUGGUAUAUUACCUGGUA [U2A C50U] reads 0.113; that for GACCUCUUUCACGUGCGAGUGAAAGAGAGAAGUGAACCAGAGAAACACACGUUGUGGUAUAUUACCUGGUA [U2A C18A], 0.23; that for UUCCACUUUCACGUGCGCGUGAAAGAGAGAAGUGAACCAGAGAAACACACGUUGUGGUAUAUUACCUGGUA [G1U U5A], 0.163.

Take UUCCUCUUUCACGUGCGCGUGAAAGAGAGAAGUGAACCAGAGAAACACACGUUGUGGUAUAAUACCUGGUA [G1U U62A]: the self-cleavage was determined as 0.147. GACCUCUUUCACGUGCGCGUGAAAGAGAGACGUGAACCAGAGAAACACACGUUGUGGUAUAUUACCUGGUA [U2A A31C]: the self-cleavage stood at 0.13. With GACCUCUUUCACGUGCGCGUGAAAGAGAGAAGUGAACCAGAGAAACCCACGUUGUGGUAUAUUACCUGGUA [U2A A47C], the self-cleavage was determined as 0.183. In the case of GACCUCUUUCACGUGCGCGUGAAAGAGAGAAGUGAACCAGAGAAACGCACGUUGUGGUAUAUUACCUGGUA [U2A A47G] it was 0.102.

Turning to GACCUCUUUCACGUGCGCGUGAAAGAGAGAAGUGAACCAGAGACACACACGUUGUGGUAUAUUACCUGGUA [U2A A44C], the self-cleavage is 0.0634. In the case of GACCUCUUUCACGUGCGCGUGAAAGAGAGAAGUGAACCAGAGAUACACACGUUGUGGUAUAUUACCUGGUA [U2A A44U] it was 0.0374; in that of GACCUCUUUCACGUGCGCGUGAAAGAGAGAAGUGAACCAGAGAAACACACGUUGUGGUAUAUUACCUGCUA [U2A G69C], 0.111; in that of GACCUCUUUCACGUGCGCGUGAAAGAGAGAAGUGAACCAGAGAAACACACCUUGUGGUAUAUUACCUGGUA [U2A G51C], 0.125. As to GACCUCUUUCACGUGCGCGUGAAAGAGAGAAGUGAACCAGAGAAACACACAUUGUGGUAUAUUACCUGGUA [U2A G51A], the self-cleavage came to 0.233. The result for GACCUCUUUCACGUGCGCGUGAAAGAGAGAAGUGAACCAGAUAAACACACGUUGUGGUAUAUUACCUGGUA [U2A G42U] reads 0.122. For GACCUCUUUCACGUGCGCGUGAAAGAGAGAAGUGAACCAGACAAACACACGUUGUGGUAUAUUACCUGGUA [U2A G42C], the self-cleavage amounted to 0.145. In the case of GACCUCUUUCACGUGCGCGUGACAGAGAGAAGUGAACCAGAGAAACACACGUUGUGGUAUAUUACCUGGUA [U2A A23C] it was 0.262.

UUCCUCUUUCACGUGCGCGUGAAAGAGAGAAGUGAACCAGAGAAACACACGUAGUGGUAUAUUACCUGGUA [G1U U53A]: the self-cleavage turned out to be 0.0738. On to UUCCUCUUUCACGCGCGCGUGAAAGAGAGAAGUGAACCAGAGAAACACACGUUGUGGUAUAUUACCUGGUA [G1U U14C], for which the self-cleavage was 0.128. Take UUCCUCUUUCACGAGCGCGUGAAAGAGAGAAGUGAACCAGAGAAACACACGUUGUGGUAUAUUACCUGGUA [G1U U14A]: the self-cleavage stood at 0.041. Turning to GACCUCUUUCACGUGCGCGUGAAAGAGAGAAGUGAACCAGAGAAACACACGUUGUGGUAUCUUACCUGGUA [U2A A61C], the self-cleavage is 0.0595. As to GACCUCUUUCACGUGCGCGUGAAAGAGAGAAGUGAACCAGAGAAACACACGUUGUGGUAUAUUACCUGGUC [U2A A71C], the self-cleavage came out at 0.656. In the case of GACCUCUUUCACGUGCGCGUGAAAGAGAGAAGUGAACCAGAGAAACACACGUUGUGGUAUAUUACCUGGUU [U2A A71U], the self-cleavage is 0.186. In the case of GACCUCUUUCACGUGCGCGUGAAAGAGAGAAGUGAACCAGAGAAACACACGUUGUAGUAUAUUACCUGGUA [U2A G56A] it was 0.173; in that of GACCUCUUUCACGUGCGCGUGAAAGAGAGAAGUGAACCAGAGAAACACACGUUGUCGUAUAUUACCUGGUA [U2A G56C], 0.0929. In the case of GACCUCUUUCACGUUCGCGUGAAAGAGAGAAGUGAACCAGAGAAACACACGUUGUGGUAUAUUACCUGGUA [U2A G15U], the self-cleavage was 0.289. The result for GACCUCUUUCACGUGCGCGUGAAAGAGAGAAGUGAUCCAGAGAAACACACGUUGUGGUAUAUUACCUGGUA [U2A A36U] reads 0.144; that for GACCUCUUUCACGUGCGCGUGAAAGAGAGAAGUGAGCCAGAGAAACACACGUUGUGGUAUAUUACCUGGUA [U2A A36G], 0.194; that for GACCUCUUUCACGUGCUCGUGAAAGAGAGAAGUGAACCAGAGAAACACACGUUGUGGUAUAUUACCUGGUA [U2A G17U], 0.22. Turning to UUCCUCUUUCACGUGCGCGUGAAAGAGAGAAGUGAACCAGAGAAACACACGUUGUGGUAGAUUACCUGGUA [G1U U60G], the self-cleavage stood at 0.259. The result for GACCUCUUUCACGUGCGCGUGAAAGAGAGAAGUGAACCAGAGUAACACACGUUGUGGUAUAUUACCUGGUA [U2A A43U] reads 0.0943; that for GACCUCUUUCACGUGCGCGUGAAAGGGAGAAGUGAACCAGAGAAACACACGUUGUGGUAUAUUACCUGGUA [U2A A26G], 0.321; that for GACCUCUUUCACGUGCGCGUGAAAGAGGGAAGUGAACCAGAGAAACACACGUUGUGGUAUAUUACCUGGUA [U2A A28G], 0.434.

Turning to UUCCUCUUUCACGUGCGCGAGAAAGAGAGAAGUGAACCAGAGAAACACACGUUGUGGUAUAUUACCUGGUA [G1U U20A], the self-cleavage was found to be 0.1.

Turning to GACUUCUUUCACGUGCGCGUGAAAGAGAGAAGUGAACCAGAGAAACACACGUUGUGGUAUAUUACCUGGUA [U2A C4U], the self-cleavage was 0.0895. In the case of GACCUCUUUCACGUGCGCGUGAAAGAGAGAAGUGAACCAGAGAAACAAACGUUGUGGUAUAUUACCUGGUA [U2A C48A] it was 0.159; in that of GACCUCUUUCACGUGCGCGUGAAAGAGAGAAGUGAACCAGAGAAGCACACGUUGUGGUAUAUUACCUGGUA [U2A A45G], 0.0349. The result for GACCUCUUUCACGUGCGCGUGAAAGAGAGAAGUGAACCAGAGAACCACACGUUGUGGUAUAUUACCUGGUA [U2A A45C] reads 0.154; that for GACCUCUUUCACGUGCGCGUGAAAGAGAGAAUUGAACCAGAGAAACACACGUUGUGGUAUAUUACCUGGUA [U2A G32U], 0.155.
